Patent US5763245A, “Method of controlling insects” (priority 1996, dated 1998)

Columns and labels:
[1] = 3-Hydroxysteroid oxidase assay (spectrophotometric); assay type: biochemical
Experimental: The identity of the enzyme was confirmed by testing its ability to oxidize a 3-hydroxysteroid, specifically cholesterol. The enzyme is added to a reagent mixture comprising horseradish peroxidase (20 U/mL), phenol (14 mM), 4-amino antipyrine (0.82 mM), Triton® X-100 (0.05%) and phosphate buffer (100 mM, pH 7). The sterol in isopropanol is then added and the absorbance at 500 nm monitored. One unit of activity is defined as the amount of enzyme required to oxidize 1 &mole of sterol per minute at 20% C.
The activity levels of the enzymes are reported in Table 12 for 3-hydroxysteroids representative of various classes of 3-hydroxysteroids.

boll weevil larvae = assay: Boll weevil larvae bioassay (diet incorporation); assay type: in vivo
Experimental: Assays for activity against boll weevil larvae are carried out by incorporating the test sample into a agar liquid diet similar to that for southern corn rootworm [Marrone et al., 1985]. The test sample is substituted for the 20% water component. Neonate larvae are allowed to feed on the diet and mortality and growth stunting are evaluated.
Protein concentrations were determined spectrophotometrically with BCA protein reagent [Smith et al., 1985].

tobacco budworm larvae = assay: Extended test with tobacco budworm larvae; assay type: in vivo; conditions: 100 ppm in artificial diet
Experimental: An extended test was performed with tobacco budworm larvae to test the effect of the stunting noted in the six-day test. Tobacco budworm eggs were added to artificial diet (as described above) containing either buffer or 100 ppm A19249 3-hydroxysteroid oxidase (cholesterol oxidase). After seven days, some mortality as compared to the controls was noted. Surviving larvae were moved to fresh diet (control or treated, as appropriate). Percent mortality (corrected for control mortality) is reported for the 7 day and 10 day periods in Table 2A. The corrected number of larvae was […]

corn earworm = assay: Lepidopteran larvae bioassay on treated artificial diet, six days; assay type: in vivo; conditions: stage lv
Experimental: (§1) Lepidopteran larvae were tested on artificial diet treated with the indicated amount of the A19249 3-hydroxysteroid oxidase (cholesterol oxidase) for six days.

tobacco budworm = assay: as above; assay type: in vivo
Experimental: as §1

pink bollworm = assay: as above; assay type: in vivo; conditions: stage lv
Experimental: as §1

black cutworm = assay: as above; assay type: in vivo; conditions: stage lv, dose 100 μg/mL
Experimental: as §1

European cornborer = assay: as above; assay type: in vivo; conditions: stage lv
Experimental: as §1

fall army worm = assay: as above; assay type: in vivo; conditions: stage lv, dose 30 μg/mL
Experimental: as §1

beet armyworm = assay: as above; assay type: in vivo; conditions: stage lv, dose 100 μg/mL
Experimental: as §1

tobacco hornworm = assay: as above; assay type: in vivo; conditions: stage lv
Experimental: as §1

B1: A19249: 3-hydroxysteroid oxidase produced by streptomycete A19249 collected in Madagascar; 52.5 kDa, SEQ ID NO: 8 (protein)
chain: VNAHQPLSRRRMLGLAALGAAALTGQTTITAAPRAAAATAPGGSGGTFVPAVVIGTGYGAAVSALRLGEAGVSTLMLEMGQLWNQPGPDGNVFCGMLKPDKRSSWFKTRTEAPLGSFLWLDLANRDIDPYAGVLDRVNFDQMSVYVGRGVGGGSLVNGGMAVTPRRSYFQEVLPQVDADEMYGTYFPRANSGLRVNNIDKDWFEQTEWYTFARVARLQAENAGLKTTFVPNVYDWDYMRGEADGTNPKSALAAEVIYGNNHGKVSLDKSYLAAALGTGKVTVETLHQVKTIRQQNDGTYLLTVEQKDPDGKLLGTKEISCRHLFLGAGSLGSIELLLRARETGTLPGLSSEIGGGWGPNGNIMTARANHVWNPTGSKQSSIPALGIDDWDNPDNPVFAEIAPMPAGLETWVSLYLAITKNPERGTFVYDAAKDRADLRWTRDQNAPAVAAAKSLFDRVNKANTTIYRYDLFGKQIKAFADDFCYHPLGGCVLGKATDNYGRVSGYKNLYVTDGSLIPGSIGVNPFVTITALAERNVERVIKEDIAGS
Relative Rate ([1]; sterol: 20-OH ecdysone): < 1 | Relative Rate ([1]; sterol: campesterol*): 65 | Relative Rate ([1]; sterol: cholesterol): 100 | Relative Rate ([1]; sterol: dehydrocholesterol): 13 | Relative Rate ([1]; sterol: dihydrocholesterol): 56 | Relative Rate ([1]; sterol: ecdysone): < 1 | Relative Rate ([1]; sterol: fucosterol): 22 | Relative Rate ([1]; sterol: lanosterol): < 1 | Relative Rate ([1]; sterol: lathosterol): 28 | Relative Rate ([1]; sterol: sitosterol): 88 | Relative Rate ([1]; sterol: stigmasterol): 22 | BollWeevil % Mortality (boll weevil larvae; 5 μg/mL, 175 mUnits per mL): 10% | Survivor Stunting (boll weevil larvae; 5 μg/mL, 175 mUnits per mL): Slight | BollWeevil % Mortality (boll weevil larvae; 10 μg/mL, 350 mUnits per mL): 10% | Survivor Stunting (boll weevil larvae; 10 μg/mL, 350 mUnits per mL): Moderate | BollWeevil % Mortality (boll weevil larvae; 15 μg/mL, 525 mUnits per mL): 5% | Survivor Stunting (boll weevil larvae; 15 μg/mL, 525 mUnits per mL): Moderate | BollWeevil % Mortality (boll weevil larvae; 20 μg/mL, 700 mUnits per mL): 15% | Survivor Stunting (boll weevil larvae; 20 μg/mL, 700 mUnits per mL): Severe | BollWeevil % Mortality (boll weevil larvae; 40 μg/mL, 1400 mUnits per mL): 70% | Survivor Stunting (boll weevil larvae; 40 μg/mL, 1400 mUnits per mL): Severe | BollWeevil % Mortality (boll weevil larvae; 60 μg/mL, 2100 mUnits per mL): 60% | Survivor Stunting (boll weevil larvae; 60 μg/mL, 2100 mUnits per mL): Severe | Percent Mortality (corrected for control mortality) (tobacco budworm larvae; interval 7 days): 20% | Percent Mortality (corrected for control mortality) (tobacco budworm larvae; interval 10 days): 61% | Percent Mortality (corrected for control mortality) (tobacco budworm larvae; interval 14 days): 80% | Stunting (corn earworm; dose 50 μg/mL): 0 | Stunting (corn earworm; dose 100 μg/mL): 35% | Stunting (tobacco budworm; stage egg/lv, dose 30 μg/mL): 0 | Stunting (tobacco budworm; stage lv, dose 100 μg/mL): 86% | Stunting (pink bollworm; dose 50 μg/mL): 0 | Stunting (pink bollworm; dose 100 μg/mL): 30% | Stunting (black cutworm): 68% | Stunting (European cornborer; dose 50 μg/mL): 0 | Stunting (European cornborer; dose 100 μg/mL): 46% | Stunting (fall army worm): 0 | Stunting (beet armyworm): 76% | Stunting (tobacco hornworm; dose 30 μg/mL): 0 | Stunting (tobacco hornworm; dose 100 μg/mL): 30%
